Source: CN113735974A (HANGZHOU BANGSHUN PHARMACEUTICAL CO LTD, dated 2021)

Experiments:
[1] = biological target: T1, 人Claudin18.1 (human Claudin18.1) (human, UniProt P56856 1-261); assay: flow cytometry (FACS) on Claudin18.1-positive HEK293 cells, FITC goat anti-human IgG
T1 construct: whole, on cells; also called CLD18.1; 密蛋白18.1

[2] = biological target: T2, 人Claudin18.2蛋白 (human Claudin18.2) (human, UniProt P56856-2 1-261); assay: flow cytometry (FACS) on Claudin18.2-positive HEK293 cells, 0.1-10 μg/mL, FITC goat anti-human IgG
T2 construct: whole, on cells; also called CLD18.2; 密蛋白18.2

Binder	binding result [1]	binding result [2]
HDR002C06 (antibody, human IgG1, kappa, V domains shown, also called 抗体HDR002C06; 抗Claudin18.2抗体) VH: QVQLQESGPGLVKPSQTLSLTCTVSGGSISSGGYYWSWIRQHPGKGLEWIGYIYYSGSTYYNPSLKSRVTISVDTSKNQFSLKLSSVTPDDTAKYYCARIVASVGGVDVWGQGTTVTVSS VL: DIQLTQSPSSVSASVGDRVTITCRASQGISSWLAWYQQKPGKAPKLLIYAASSLQSGVPSRFSGSGSGTDFTLTISSLQPEDFATYYCQQANSFPLTFGGGTKVEIKR	no binding (tested: 0.1-10 μg/mL tested)	binds
HDR002C04 (antibody, human IgG1, lambda, V domains shown, also called 抗体HDR002C04; 抗Claudin18.2抗体) VH: QVQLVQSGAEVKKPGASVKVSCKASGYTFTSYYMHWVRQAPGQGLEWMGIINPSGGSTSYAQKFQGRVTMTRDTSTSTVYMELSSLRSEDTAVYYCAKGSVDTAMVPGVDYWGQGTLVTVSS VL: not shown	no binding (tested: 0.1-10 μg/mL tested)	binds
